In test [1] the target is T1, delta PKC-annexin V complex (Cricetulus griseus, UniProt A0A8C2N0P5+G3I5A4).
T1 construct: endogenous in cells; host or cells: CHO cells
Description: Dissociation of delta PKC-annexin V complex in CHO cells. The conditions noted are these: CHO cells pretreated with the agent, then 10 nM PMA, FIG. 7. The test is classed as cell-based. Here is the method:
To determine the requirements for complex disassociation and subsequent translocation, PMA-induced formation of the delta PKC-annexin V complex was conducted under energetically limiting conditions caused by ATP depletion using 2-deoxyglucose (Kondo, T. et al., J. Lab. Clin. Med., 94:617-23 (1979)), and with cytoskeletal perturbations by pretreatment with actin […] agent cytochalasin D or microtubule-destabilizing agent nocodazole.
CHO cells were pretreated with one of the following: (1) 2-deoxyglucose (20 mM) for 4 hours in a glucose-free buffer; (2) nocodazole (10 μM) for 2 hours; or (3) cytochalasin D (2 μM) for 1 hour. The cells were then treated with phorbol myristate acetate (PMA; 10 nM) for times of between 30 seconds to 5 minutes. After the lapsed time, the cells were washed with cold PBS, and homogenized on ice with trituration in homogenization buffer (20 mM Tris pH 7.4, 2 mM EDTA, 10 mM EGTA, 0.25M sucrose, 12 mM β-mercaptoethanol, and protease inhibitor cocktail (Sigma), 0.1% formaldehyde. After 30 min at 4° C., the lysates were quenched with 0.14M glycine for 20 min at 4° C., and samples spun at 14K rpm at 4° C. The supernatant was incubated with 1 μg anti-delta PKC antibody (Santa Cruz Biotechnology, Inc., Santa Cruz, Calif.) for 1 hour, then with proteinG beads (Invitrogen Corporation) for 3 hours at 4° C. The beads where then washed with wash buffer (20 mM Tris pH 7.5, 2 mM EDTA, 100 mM NaCl, 12 mM β-mercaptoethanol, 0.1% Triton), and separated on 7.5% SDS-PAGE, transferred to nitrocellulose, and probed with anti-annexin V (Santa Cruz Biotechnology, Inc., Santa Cruz, Calif.), followed by visualization by ECL Western blotting.

Test [2] deals with T2, annexin V and delta PKC interaction (Homo sapiens, UniProt Q05655).
T2 construct: endogenous in cells; host or cells: cardiomyocytes
T2 sequence (Q05655 whole entry): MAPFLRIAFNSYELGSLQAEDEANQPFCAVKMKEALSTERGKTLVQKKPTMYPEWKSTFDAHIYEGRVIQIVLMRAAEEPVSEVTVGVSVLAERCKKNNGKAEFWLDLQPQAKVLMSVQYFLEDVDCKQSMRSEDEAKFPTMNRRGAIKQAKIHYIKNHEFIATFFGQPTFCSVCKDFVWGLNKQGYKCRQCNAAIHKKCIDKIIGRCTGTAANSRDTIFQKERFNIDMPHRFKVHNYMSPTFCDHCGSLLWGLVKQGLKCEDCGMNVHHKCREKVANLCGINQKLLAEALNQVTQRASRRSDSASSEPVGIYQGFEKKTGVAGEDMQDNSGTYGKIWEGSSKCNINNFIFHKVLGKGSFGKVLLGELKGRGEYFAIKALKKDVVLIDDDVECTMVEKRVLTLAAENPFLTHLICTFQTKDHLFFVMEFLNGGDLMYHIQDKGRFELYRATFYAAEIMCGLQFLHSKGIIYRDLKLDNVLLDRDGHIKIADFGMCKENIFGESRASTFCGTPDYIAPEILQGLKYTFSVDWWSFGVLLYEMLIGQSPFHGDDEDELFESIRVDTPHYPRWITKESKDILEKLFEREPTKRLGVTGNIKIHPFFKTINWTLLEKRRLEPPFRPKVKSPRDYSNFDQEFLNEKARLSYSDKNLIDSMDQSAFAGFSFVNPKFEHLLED
Put plainly: Cross-linking immuno-precipitation of delta PKC probed with anti-annexin V in cardiac myocytes. It counts as cell-based. As for the experimental part:
Example 4 describes a study where cardiac myocytes were stimulated with a selected agent and then immuno-precipitated with anti-delta PKC after cross-linking. The cell lysates were then probed with anti-annexin V and visualized with ECL Western blotting. […] The stimulation agent was applied to the cells for times of between 30 seconds to 20 minutes, prior to lysing.
Cardiomyocytes were treated with phorbol 12-myristate 13-acetate (PMA; 10 nM), hydrogen peroxide (H2O2; 5 mM), JTV-519, or delta V1-1 peptide (1 μM) and JTV-519 (1 μM), for times of between 30 seconds to 5 minutes. After the lapsed time, the cells were washed with cold PBS, and homogenized on ice with trituration in homogenization buffer (20 mM Tris pH 7.4, 2 mM EDTA, 10 mM EGTA, 0.25M sucrose, 12 mM O-mercaptoethanol, and protease inhibitor cocktail (Sigma), 0.1% formaldehyde. After 30 min at 4° C., the lysates were quenched with 0.14M glycine for 20 min at 4° C., and samples spun at 14K rpm at 4° C. The supernatant was incubated with 1 μg anti-delta PKC antibody (Santa Cruz Biotechnology, Inc., Santa Cruz, Calif.) for 1 hour, then with proteinG beads (Invitrogen Corporation) for 3 hours at 4° C. The beads where then washed with wash buffer (20 mM Tris pH 7.5, 2 mM EDTA, 100 mM NaCl, 12 mM β-mercaptoethanol, 0.1% Triton), and separated on 7.5% SDS-PAGE, transferred to nitrocellulose, and probed with anti-annexin V (Santa Cruz Biotechnology, Inc., Santa Cruz, Calif.), followed by visualization by ECL Western blotting.

Test [3] has as its target T3, delta PKC/annexin V interaction (Cricetulus griseus, UniProt A0A8C2N0P5).
T3 construct: endogenous in cells; host or cells: CHO cells
Put plainly: Cross-linking co-immunoprecipitation of annexin V and delta PKC in CHO cells. It counts as cell-based. Here is the method:
A similar study was conducted to further evaluate the in vitro, intracellular interactions of delta PKC and annexin V. Cellular interactions of delta PKC/annexin V interaction in CHO cells were stabilized with a cross-linking agent, after stimulation with 10 nM PMA. The complexes formed with delta PKC were then immuno-precipitated and tested for the presence of annexin V. The SDS-PAGE gel is shown in FIG. 6A and a corresponding graph quantifying percent association of annexin V and delta PKC as a function of time is shown in FIG. 6B. […] The interaction is relatively short-lived, and the proteins disassociated after 1 minute of stimulation.
The effect of JTV-519, an activator of delta PKC, on the association of annexin V and delta PKC was also evaluated in this study. Cells were treated with JTV-519, and the association of annexin V and delta PKC was examined using the co-immunoprecipitation procedure described above. […] PMA caused the disassociation of the JTV-induced complex at 30 seconds, the time of maximal PMA-induced association. […] Whereas the cytosolic fraction of the cells contained a steady low level of the complex, the majority of the complex was found in the particulate fraction of the cells, and disappearance from the particulate fraction followed the same time-course as observed in whole cell lysates (compare FIG. 6D bottom panel with FIG. 6B).

Test [4] relates to isolated rat hearts. Put plainly: Ex vivo ischemia/reperfusion in isolated rat hearts. Conditions: administered after ischemia during the initial 10 minutes of reperfusion. Here is the method:
The physiologic impact of disruption of the delta PKC-annexin V complex was evaluated in an ex vivo ischemia/reperfusion study using the annexin V peptide, TAT-AnxV, and its mutant, TAT-AnxV(R→E). As described in Example 7, isolated rat hearts were treated with TAT-AnxV or TAT-AnxV(R→E) for 10 minutes prior to induction of an ischemic episode. The ischemic episode lasted for 30 minutes, at which time flow to the heart was returned for 60 minutes (reperfusion). After the reperfusion period, cardiac effluent was collected and analyzed for creatine phosphokinase (CPK). The hearts were stained and visually inspected for live and dead tissue. Infarct size was measured by taking the average of the dead (white) tissue on both sides of the tissue slice.
A similar study was conducted, except rather than pretreating the isolated hearts with the annexin V peptide, the peptide was administered after the ischemic event and during the initial 10 minutes of the reperfusion period. Hearts were similarly treated with the mutant peptide, TAT-AnxV(R→E).
Rats were anesthetized and their hearts were rapidly removed and cannulated via the aorta for retrograde perfusion (Colbert, M. et al., J. Clin. Invest., 100:1958 (1997)). The hearts were left untreated, or were pretreated with the annexin V peptide, conjugated to TAT, (TAT-AnxV, SEQ ID NO:29) or with its mutant, TAT-AnxV(R→E) (SEQ ID NO:31), for 10 minutes prior to a 30 minutes of ischemia. Ischemia was induced by interrupting flow for 30 minutes and then reestablishing flow for 60 minutes (reperfusion). Cardiac effluent was collected for 15 minutes after reperfusion and assayed for creatine phosphokinase (CPK) using a Sigma kit. Hearts were stained with 2,3,5-triphenyltetrazolium chloride ([…]) to visualize live tissue (red) and dead tissue (white), and infarct size was measured by taking the average of the white area on both sides of the tissue slice (n=3, p<0.05). Results are shown in FIGS. 9A-9B and FIGS. 10A-10B.

For test [5], the target named is delta PKC (Rattus norvegicus, UniProt P09215). Description: ELISA of annexin V peptide variants fused to alkaline phosphatase on immobilized delta PKC. The test is classed as binding. Also on record: key to Binding: +++: Relative binding is shown in Table 1 by “+” and “−” indicators; ++: Relative binding is shown in Table 1 by “+” and “−” indicators; Relative binding is shown in Table 1 by “+” and “−” indicators; Relative binding is shown in Table 1 by “+” and “−” indicators; −−−: Relative binding is shown in Table 1 by “+” and “−” indicators. The conditions noted are these: Table 1; for Binding: relative binding of peptide-alkaline phosphatase fusion to immobilized delta PKC. Here is the method:
Binding of the annexin V peptide (SEQ ID NO: 1) and of variants of the peptide to delta PKC was examined using an ELISA protocol, detailed in Example 6. Delta PKC (SEQ ID NO:3) was immobilized in the wells of a microtiter plate and then incubated with the annexin V peptide conjugated to alkaline phosphatase or with variants of the annexin V peptide, also conjugated to alkaline phosphatase.
Recombinant delta PKC protein (SEQ ID NO:3) was bound to a Falcon plate for 1 hour at room temperature in carbonate buffer pH 9.6. A 1:10-1:100 dilution of PKC enzyme from glycerol stock or 100 μg was prepared. β-mercaptoethanol at 1 μL/mL was added into the PKC. Each well contained approximately 100 μL of PKC; some wells without PKC were present to correct for non-specific binding.
Next, all wells were blocked with 200 μL of super block or 0.5% milk in carbonate buffer. Blocking was done twice, for 5 minutes each time.
Without washing the wells, 100 μL of a peptide fused to alkaline phosphatase protein (i.e., peptide-alkaline phosphatase fusion) was added to the wells, and incubated for 30 minutes at 37° C. The wells were then washed three times, for 2 minutes each time, with TBS/Tween (0.1%). The wells were allowed to develop overnight before reading absorbance at 405 nm.
In general terms: In an ELISA, binding on a coated surface is turned into a signal by an enzyme label.

Setting [6] is: cardiac myocytes stimulated with the agent, FIG. 5.

The source of these data is patent US20090155236A1, “Peptide sequence for modulation of delta protein kinase c” (NATIONAL INSTITUES OF HEALTH (NIH), U.S. DEPT OF HEALTH AND …, priority 2004, published 2009).

Bounds are passed on as bounds.

Chain of delta PKC (P09215 with tags, fused parts or gaps with the stated changes limits assumed): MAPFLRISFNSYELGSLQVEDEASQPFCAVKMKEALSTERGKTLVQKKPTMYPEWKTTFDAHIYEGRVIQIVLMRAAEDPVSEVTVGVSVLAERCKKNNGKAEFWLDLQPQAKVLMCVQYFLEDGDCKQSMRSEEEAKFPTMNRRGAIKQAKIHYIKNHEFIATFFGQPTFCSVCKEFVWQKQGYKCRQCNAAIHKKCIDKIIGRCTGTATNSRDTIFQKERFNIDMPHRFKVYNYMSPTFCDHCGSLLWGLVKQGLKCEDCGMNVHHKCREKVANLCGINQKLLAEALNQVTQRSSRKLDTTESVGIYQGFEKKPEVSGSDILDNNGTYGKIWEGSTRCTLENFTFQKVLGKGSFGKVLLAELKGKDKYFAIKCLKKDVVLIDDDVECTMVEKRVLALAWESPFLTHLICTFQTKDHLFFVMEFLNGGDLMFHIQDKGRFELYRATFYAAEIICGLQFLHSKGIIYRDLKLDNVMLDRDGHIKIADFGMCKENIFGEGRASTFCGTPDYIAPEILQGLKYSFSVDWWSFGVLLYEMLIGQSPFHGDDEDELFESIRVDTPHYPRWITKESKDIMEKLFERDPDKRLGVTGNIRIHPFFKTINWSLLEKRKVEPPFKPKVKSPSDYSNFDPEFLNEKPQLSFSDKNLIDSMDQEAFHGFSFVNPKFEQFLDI
T3 sequence (A0A8C2N0P5 1-676): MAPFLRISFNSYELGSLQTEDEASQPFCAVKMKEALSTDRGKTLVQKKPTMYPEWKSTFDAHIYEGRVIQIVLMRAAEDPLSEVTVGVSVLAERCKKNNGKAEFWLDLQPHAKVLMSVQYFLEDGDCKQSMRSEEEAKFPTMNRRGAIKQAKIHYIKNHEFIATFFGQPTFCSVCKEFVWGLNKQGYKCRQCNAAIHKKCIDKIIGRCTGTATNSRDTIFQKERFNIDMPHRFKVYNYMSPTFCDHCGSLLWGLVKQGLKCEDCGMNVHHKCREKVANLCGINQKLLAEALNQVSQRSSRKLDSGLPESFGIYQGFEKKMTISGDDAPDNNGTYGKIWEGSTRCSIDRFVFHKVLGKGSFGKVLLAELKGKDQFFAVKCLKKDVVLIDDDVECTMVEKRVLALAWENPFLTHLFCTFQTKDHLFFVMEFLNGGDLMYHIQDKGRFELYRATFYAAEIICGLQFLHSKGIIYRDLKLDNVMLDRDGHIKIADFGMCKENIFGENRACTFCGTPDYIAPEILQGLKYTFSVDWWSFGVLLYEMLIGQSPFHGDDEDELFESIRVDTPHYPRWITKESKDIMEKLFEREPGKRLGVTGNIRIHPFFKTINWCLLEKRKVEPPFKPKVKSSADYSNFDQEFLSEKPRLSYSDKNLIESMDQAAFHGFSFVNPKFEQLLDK
T3 sequence (G3I5A4 1-321 partner): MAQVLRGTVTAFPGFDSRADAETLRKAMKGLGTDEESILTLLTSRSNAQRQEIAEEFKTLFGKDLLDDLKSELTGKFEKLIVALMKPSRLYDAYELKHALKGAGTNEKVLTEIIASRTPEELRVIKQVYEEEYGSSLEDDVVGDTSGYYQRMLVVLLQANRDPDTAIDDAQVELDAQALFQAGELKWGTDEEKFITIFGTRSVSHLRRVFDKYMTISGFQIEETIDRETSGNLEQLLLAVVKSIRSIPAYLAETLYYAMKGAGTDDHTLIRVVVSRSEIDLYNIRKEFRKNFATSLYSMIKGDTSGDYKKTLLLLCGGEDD
T1 sequence (A0A8C2N0P5 1-676): as the sequence (A0A8C2N0P5 1-676) above
T1 sequence (G3I5A4 1-321): as the sequence (G3I5A4 1-321 partner) above

As for `O=CC[C@@H](O)[C@H](O)[C@H](O)CO` [2-deoxyglucose], the “disassociation of the delta PKC-annexin V complex” value in test [1] was “substantial levels of the complex even after 5 minutes”.

On to `OO` [H2O2, hydrogen peroxide], for which the “interaction of annexin V and delta PKC” value in test [2] (setting [6]) is on record as “stimulated delta PKC to a greater extent than exposure for 2 minutes”.

As for `CCCCCCCCCCCCCC(=O)O[C@@H]1[C@@H](C)[C@@]2(O)[C@@H](C=C(CO)C[C@]3(O)C(=O)C(C)=C[C@@H]23)[C@@H]2C(C)(C)[C@]12OC(C)=O` [PMA, phorbol 12-myristate 13-acetate], the “interaction of annexin V and delta PKC” value in test [2] (setting [6]) is “Annexin V interacts with delta PKC early after stimulation”. In test [3] (10 nM PMA, FIGS. 6A-6B), the “time of stimulation after which annexin V and delta PKC disassociated” value stood at 1 min; the “time to induction of annexin V and delta PKC interaction” value is ≤ 30 s. For the same compound, in test [3] (soluble versus particulate fraction, FIG. 6D), the “cellular localization of the delta PKC-annexin V complex” value is reported as “maximum complex accumulation in the particulate fraction”.

Regarding `C=C1[C@@H](C)[C@H]2[C@H](Cc3ccccc3)NC(=O)[C@]23[C@H](OC(C)=O)/C=C/[C@@](C)(O)C(=O)[C@@H](C)C/C=C/[C@H]3[C@@H]1O` [cytochalasin D], the “disassociation of the delta PKC-annexin V complex” value in test [1] is recorded as “did not affect the profile of disassociation”.

With `COC(=O)Nc1nc2ccc(C(=O)c3cccs3)cc2[nH]1` [nocodazole], the “disassociation of the delta PKC-annexin V complex” value in test [1] was “substantial levels of the complex even after 5 minutes”.

In the case of “LQANRDPD (listed as Homo sapiens) [SEQ ID NO:1, peptide from annexin V, residues 157-164]”, the infarct size result in test [4] (FIG. 10A) was “no cardioprotective effect was observed”. Besides, the “creatine phosphokinase (CPK) released” value in test [4] (FIG. 10B) is reported as “does not confer a cardioprotective effect”.

On to “MAAAEDP (variant of SEQ ID NO1) [SEQ ID NO:17]”, for which, in test [5], the Binding entry was “−”.

As for “MEAAEDP (variant of SEQ ID NO1) [SEQ ID NO:15]”, in test [5], the “binding to delta PKC” value is on record as “bind to delta PKC” and the Binding result was “+”.

With “MQAARDP (variant of SEQ ID NO1) [SEQ ID NO:12]”, in test [5], the “binding to delta PKC” value is “bind to delta PKC” and the Binding result was “+++”.

As to “MRAAADP (variant of SEQ ID NO1) [SEQ ID NO:16]”, the Binding result in test [5] is recorded as “−−−”.

“MRAAEDP (variant of SEQ ID NO1) [SEQ ID NO:18]”: the Binding result in test [5] is “++”.

Regarding “MRAAENP (variant of SEQ ID NO1) [SEQ ID NO:13]”, in test [5], the “binding to delta PKC” value is “bind to delta PKC” and the Binding entry is “+++”.

Regarding “MRAAQDP (variant of SEQ ID NO1) [SEQ ID NO:14]”, in test [5], the “binding to delta PKC” value is “bind to delta PKC” and the Binding result is on record as “++”.

As for “delta V1-1 peptide: amino acid sequence from the first variable region of delta PKC (residues 8-17); peptide inhibitor of delta PKC (SFNSYELGS; listed as Rattus norvegicus)”, the “interaction of annexin V and delta PKC” value in test [2] (cardiac myocytes pre-treated with the peptide for 20 minutes, then JTV-519 for 20 minutes, FIG. 5 Lane 10) is reported as “blocked”.
